Laboratory results reported in PMC6125206 (Structure (London, England : 1993), 2018).

Target: the molecule itself
Assay: AUC

B1: E. coli cyclopropane fatty acid (CFA) synthase, wild type (from His6-TEV-CFA synthase) (enzyme, UniProt P0A9H7 1-382, looked up)
chain: MSSSCIEEVSVPDDNWYRIANELLSRAGIAINGSAPADIRVKNPDFFKRVLQEGSLGLGESYMDGWWECDRLDMFFSKVLRAGLENQLPHHFKDTLRIAGARLFNLQSKKRAWIVGKEHYDLGNDLFSRMLDPFMQYSCAYWKDADNLESAQQAKLKMICEKLQLKPGMRVLDIGCGWGGLAHYMASNYDVSVVGVTISAEQQKMAQERCEGLDVTILLQDYRDLNDQFDRIVSVGMFEHVGPKNYDTYFAVVDRNLKPEGIFLLHTIGSKKTDLNVDPWINKYIFPNGCLPSVRQIAQSSEPHFVMEDWHNFGADYDTTLMAWYERFLAAWPEIADNYSERFKRMFTYYLNACAGAFRARDIQLWQVVFSRGVENGLRVAR
stoichiometry N: 2
